Test [1] concerns the target T1, B7-H3 on human tumor cell lines (HT29, NCI-N87, HCC1806, HCC827, A375) (human, UniProt Q5ZPR3 29-534).
T1 construct: whole, on cells
T1 sequence (looked up): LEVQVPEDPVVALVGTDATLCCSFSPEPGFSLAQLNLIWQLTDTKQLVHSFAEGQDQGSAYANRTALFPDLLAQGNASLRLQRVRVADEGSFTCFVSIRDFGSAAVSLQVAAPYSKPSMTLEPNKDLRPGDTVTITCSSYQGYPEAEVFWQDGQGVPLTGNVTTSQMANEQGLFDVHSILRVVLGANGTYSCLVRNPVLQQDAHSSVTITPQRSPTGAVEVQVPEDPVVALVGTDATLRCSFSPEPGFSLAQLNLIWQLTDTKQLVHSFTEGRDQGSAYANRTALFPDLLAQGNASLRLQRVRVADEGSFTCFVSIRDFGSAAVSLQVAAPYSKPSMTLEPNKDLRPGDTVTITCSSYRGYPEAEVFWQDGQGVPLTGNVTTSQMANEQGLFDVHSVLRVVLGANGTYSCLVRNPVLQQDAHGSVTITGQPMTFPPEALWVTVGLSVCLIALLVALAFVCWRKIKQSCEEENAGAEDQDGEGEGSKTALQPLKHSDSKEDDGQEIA
Briefly: flow cytometry on HT29 cells (experiment 2). (In flow cytometry, cells or beads pass a laser one at a time.)

The target of test [2] is T1, B7-H3 on human tumor cell lines (HT29, …). Briefly: flow cytometry on HCC827 cells (experiment 2).
Test [3] has as its target T2, human B7-H3-4Ig-his protein (human, UniProt Q5ZPR3 29-461, limits assumed).
T2 construct: not shown: His tag
T2 sequence (looked up): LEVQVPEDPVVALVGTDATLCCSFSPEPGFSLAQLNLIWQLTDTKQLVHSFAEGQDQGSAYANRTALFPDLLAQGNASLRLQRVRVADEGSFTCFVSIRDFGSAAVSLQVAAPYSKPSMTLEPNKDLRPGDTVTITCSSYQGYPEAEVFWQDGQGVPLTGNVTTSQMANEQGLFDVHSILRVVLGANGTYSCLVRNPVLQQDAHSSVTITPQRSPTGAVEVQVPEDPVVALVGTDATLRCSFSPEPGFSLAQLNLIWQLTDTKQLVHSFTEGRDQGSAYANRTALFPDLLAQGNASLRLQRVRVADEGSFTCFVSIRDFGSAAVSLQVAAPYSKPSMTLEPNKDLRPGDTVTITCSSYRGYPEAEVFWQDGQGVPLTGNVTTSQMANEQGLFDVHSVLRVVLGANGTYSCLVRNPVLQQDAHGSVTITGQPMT
Briefly: BLI (ForteBio), ADC on Protein A sensor, antigen 200-3.125 nM, 1:1 global fit (result 2). Background: BLI is a label-free optical method that tracks binding on a fibre tip over time.

Test [4] concerns the target T3, human B7-H3-2Ig-his protein (human, UniProt Q5ZPR3-2 29-245, limits assumed).
T3 construct: the 2Ig form is its isoform 2; not shown: His tag
T3 sequence (looked up): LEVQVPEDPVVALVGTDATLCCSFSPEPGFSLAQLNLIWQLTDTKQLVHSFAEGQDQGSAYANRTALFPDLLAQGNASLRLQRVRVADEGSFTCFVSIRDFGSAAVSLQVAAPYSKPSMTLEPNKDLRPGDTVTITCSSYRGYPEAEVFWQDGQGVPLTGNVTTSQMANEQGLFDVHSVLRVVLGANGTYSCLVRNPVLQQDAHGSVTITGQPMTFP
Described as above.

Another test deals with monkey B7-H3-his protein (monkey). The description is as above.
The next test has as its target T4, rat B7-H3-his protein (rat, UniProt Q7TPB4 29-248, limits assumed).
T4 construct: not shown: His tag
T4 sequence (looked up): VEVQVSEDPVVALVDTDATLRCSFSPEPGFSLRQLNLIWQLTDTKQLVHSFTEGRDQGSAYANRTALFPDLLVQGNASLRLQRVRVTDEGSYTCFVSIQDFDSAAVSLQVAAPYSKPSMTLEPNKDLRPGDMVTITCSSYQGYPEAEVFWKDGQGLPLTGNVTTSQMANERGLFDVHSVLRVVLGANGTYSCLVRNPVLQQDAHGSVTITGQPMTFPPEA
Briefly: BLI (ForteBio), ADC captured on Protein A sensor (result 2).

B1: ADC 17 (2#8890-B-03, DAR 8) (antibody, human IgG1, kappa, V domains shown)
VH: QVQLQESGPGLVQPSGTLSLTCAVSGGSDSSTNWWTWVRQSPGQGLEWIGEISPIGFTSYSPSLRSRVTISVDKSKTQFSLKLSSVTAADTAVYYCARDRLYFAFWGQGTLVTVSS
VL: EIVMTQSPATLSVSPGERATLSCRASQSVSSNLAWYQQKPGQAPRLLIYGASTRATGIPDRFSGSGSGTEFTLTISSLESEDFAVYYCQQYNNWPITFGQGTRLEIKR
modifications: cysteine sulfhydryls carry drug-linker B-03 (sites not stated; DAR 7.82 per antibody)
As for B1, the EC50 (usually the midpoint of the concentration-response curve) in test [1] came out at 3.21 ng/mL; in test [2], 8.05 ng/mL. For the same molecule, the Kd – broadly, the free concentration of one partner at which half of the binding sites on the other are occupied at equilibrium, for simple one-to-one binding – is 1.04 nM in test [3], 42 nM in test [4] and 2.57 nM with monkey B7-H3-his protein. The binding result with rat B7-H3-his protein is reported as “no binding (tested: 200 nM (highest antigen concentration))”.

The record behind these values is patent EP4603109A1 (Sichuan Kelun-Biotech Biopharmaceutical Co., Ltd., dated 2024).
